In experiment [1] the target is T1, extracellular domain of CD47 fused to a His(×6)-Avi-tag (Homo sapiens, UniProt Q08722).
T1 construct: CD47, extracellular domain; also called CD47-ECD
The experiment can be described thus: ELISA; CD47-ECD coated on plates; serial dilutions of phage-scFvs, detected with anti-M13-HRP; pH 7.4 and pH 6.0. The note with it: one partner purified. (In general: In an ELISA, binding on a coated surface is turned into a signal by an enzyme label.)

Experiment [2] deals with T1, extracellular domain of CD47 fused to a …. Briefly: ELISA; CD47-ECD coated on plates; phage-scFv site saturation mutants of BC31M4, detected with anti-M13-HRP; pH 6.5 and pH 7.4. Particulars: one partner purified.
In experiment [3] the target is T2, full-length human CD47 stably expressed on CHO cells (CHO-hCD47) (human, UniProt Q08722).
T2 construct: full-length human CD47, stably expressed on CHO cells; also called CHO-CD47; cell-surface CD47; source: CHO cells, stably expressing, on cells
Briefly: flow cytometry on cells; blocking assay of BC27: serially diluted antibody incubated with cells in the presence of bio-SIRPα-Fc, detected with streptavidin-FITC; pH 6.0, 6.5, 6.9 and 7.4; up to 1 µM antibody. Particulars: one partner purified.

In experiment [4] the target is T2, full-length human CD47 stably expressed …. The experiment can be described thus: flow cytometry on cells; serially diluted antibodies (hIgG1 form) incubated with CHO-CD47 or tumor cells, detected with goat anti-human IgG-FITC; pH 6.8 and pH 7.4 separately. The note with it: one partner purified.
Experiment [5] addresses T3, cell-surface CD47 on Raji, Jurkat and MDA-231 tumor cells (human (endogenous in Raji, Jurkat, …, UniProt Q08722)).
T3 construct: CD47 endogenous on human tumor cell lines
The experiment is described as above. The note with it: one partner purified.

Experiment [6] deals with T1, extracellular domain of CD47 fused to a …. Briefly: ELISA; CD47-ECD coated on plates; serial dilutions of BC31M4 mutants in hIgG1 form; pH 7.4 and pH 6.8. The note with it: both partners purified.
For experiment [7] the target is unchanged. The experiment can be described thus: SPR; Biacore T200, 25 °C; anti-human IgG immobilised on a CM5 chip, antibodies (hIgG1 form) captured, twofold serially diluted CD47-ECD injected; pH 7.4 buffer; 1:1 binding model. Particulars: both partners purified. For orientation: In SPR one partner is held on a chip, and binding of the other changes the refractive index at the surface.

Experiment [8] shares this target. Briefly: SPR; Biacore T200, 25 °C; anti-human IgG immobilised on a CM5 chip, antibodies (hIgG1 form) captured, twofold serially diluted CD47-ECD injected; pH 6.8 buffer; 1:1 binding model. Particulars: both partners purified.

Changes are numbered by the printed parent chain. In names and notes the source's numbering stands.

T1 sequence (Q08722 whole entry, looked up, the tested form may be a part): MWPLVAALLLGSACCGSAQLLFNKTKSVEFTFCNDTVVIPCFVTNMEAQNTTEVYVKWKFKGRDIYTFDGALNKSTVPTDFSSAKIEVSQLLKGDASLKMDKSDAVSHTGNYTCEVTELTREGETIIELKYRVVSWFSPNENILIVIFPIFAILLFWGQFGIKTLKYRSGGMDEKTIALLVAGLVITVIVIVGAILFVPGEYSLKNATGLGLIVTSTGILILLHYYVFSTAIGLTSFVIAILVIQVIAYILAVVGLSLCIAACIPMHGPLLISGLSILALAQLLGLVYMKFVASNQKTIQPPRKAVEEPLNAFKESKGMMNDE
T2 sequence (Q08722 19-323): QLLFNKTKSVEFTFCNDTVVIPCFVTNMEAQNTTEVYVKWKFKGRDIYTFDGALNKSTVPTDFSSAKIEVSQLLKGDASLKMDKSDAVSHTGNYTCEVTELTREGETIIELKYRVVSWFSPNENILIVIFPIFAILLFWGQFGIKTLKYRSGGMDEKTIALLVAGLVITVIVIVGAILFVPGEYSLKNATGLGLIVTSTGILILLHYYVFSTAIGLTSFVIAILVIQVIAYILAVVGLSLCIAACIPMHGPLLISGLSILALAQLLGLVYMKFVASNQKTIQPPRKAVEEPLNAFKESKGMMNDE
T3 sequence (Q08722 19-323): as above

B1: BC27 (phage-scFv form) (scFv, V domains shown)
VH: QVQLVQSGAEVKKPGASVKVSCKASGYTFTSYGISWVRQAPGQGLEWMGWISAYNGNTNYAQKLQGRVTMTTDTSTSTAYMELRSLRSDDTAVYYCARGKVYFDYWGQGTLVTVSS
VL: EIVLTQSPATLSLSPGERATLSCRASQSLSRNHLAWYQQKPGQPPRLLIHWASTRESGVPDRFSGSGSGTDFTLTISSLQAEDVAVYYCQQYYTASWTFGQGTKVEIK
notes: VH of BC27: as the variable region of the heavy chain of m6 (PDB 7WN8) except in HCDR3; scFv linker of the library; VL of BC27: as the variable region of the light chain of m6 (PDB 7WN8) except in LCDR3
Regarding B1, the binding result in experiment [1] is “binds”.

B2: BC31M4 (phage-scFv form) with VL H107 replaced by arginine (scFv, V domains shown)
VH: B1 VH with K100A
VL: B1 VL with Y92R, Y93T, T94Q, A95N, S96T
notes: VH of BC31M4: as the variable region of the heavy chain of m6 (PDB 7WN8) with A instead of T at residue 108 of HCDR3 (IMGT numbering); scFv linker; VL of BC31M4 (as the variable region of the light chain of m6, PDB 7WN8) with H107 (LCDR3, IMGT numbering) changed
Turning to B2, in experiment [2], the binding result is “binds”.

B3: BC27 (hIgG1 form) (antibody, V domains shown)
VH: B1 VH
VL: B1 VL
notes: VH of BC27, parent of BC31M4 and BC31M5: as the variable region of the heavy chain of m6 (PDB 7WN8) except in HCDR3; constant region of the human IgG1 heavy chain (from the expression vector); VL of BC27: as the variable region of the light chain of m6 (PDB 7WN8) except in LCDR3; constant region of the light chain from the hIgG1 light-chain vector; IgG1; Random mutations were introduced only into …
For the molecule B3, the binding result in experiment [3] is “binds”.

B4: BC31M4 (phage-scFv form), wild type (scFv, V domains shown)
VH: B1 VH with K100A
VL: B1 VL with Y92H, Y93T, T94Q, A95N, S96T
notes: VH of BC31M4: as the variable region of the heavy chain of m6 (PDB 7WN8) with A instead of T at residue 108 of HCDR3 (IMGT numbering); scFv linker; VL of BC31M4: as the variable region of the light chain of m6 (PDB 7WN8); also called wild-type BC31M4
For B4, the binding result in experiment [2] was “binds”.

B5: BC31M4 (hIgG1 form) (antibody, V domains shown)
VH: B1 VH with K100A
VL: B1 VL with Y92H, Y93T, T94Q, A95N, S96T
notes: VH of BC31M4: as the variable region of the heavy chain of m6 (BC31M5, PDB 7WN8) with alanine instead of threonine at residue 108 of HCDR3 (IMGT numbering); constant region of the human IgG1 heavy chain (from the expression vector); VL of BC31M4: as the variable region of the light chain of m6 (BC31M5, PDB 7WN8); only one amino acid (heavy chain 108) differs between the two antibodies; constant …
As for B5, the binding result in experiment [4] and in experiment [5] was “binds” in each case.

B6: BC31M4 (hIgG1 form) with the 55R/107R substitution (antibody, V domains shown)
VH: B1 VH with K100A
VL: B1 VL with H50R, Y92R, Y93T, T94Q, A95N, S96T
notes: VH of BC31M4: as the variable region of the heavy chain of m6 (PDB 7WN8) with A instead of T at residue 108 of HCDR3 (IMGT numbering); constant region of the human IgG1 heavy chain (from the expression vector); VL of BC31M4 (as the variable region of the light chain of m6, PDB 7WN8) with histidine-to-arginine substitutions, IMGT numbering; constant region of the light chain from the hIgG1 …
With B6, the binding result in experiment [6] was “binds”.

B7: BC31M4 (phage-scFv form) with VL H107 replaced by lysine (scFv, V domains shown)
VH: B1 VH with K100A
VL: B1 VL with Y92K, Y93T, T94Q, A95N, S96T
notes: VH of BC31M4: as the variable region of the heavy chain of m6 (PDB 7WN8) with A instead of T at residue 108 of HCDR3 (IMGT numbering); scFv linker; VL of BC31M4 (as the variable region of the light chain of m6, PDB 7WN8) with H107 (LCDR3, IMGT numbering) changed; also called H107K
For the molecule B7, the binding result in experiment [2] was “binds”.

B8: BC31M4 (hIgG1 form) with the 38R/55R substitution (antibody, V domains shown)
VH: B1 VH with K100A
VL: B1 VL with H33R, H50R, Y92H, Y93T, T94Q, A95N, S96T
notes: as for B6
With B8, the binding result in experiment [6] is “binds”.

B9: BC31M4 (phage-scFv form) with VL H38 replaced by lysine (scFv, V domains shown)
VH: B1 VH with K100A
VL: B1 VL with H33K, Y92H, Y93T, T94Q, A95N, S96T
notes: VH of BC31M4: as the variable region of the heavy chain of m6 (PDB 7WN8) with A instead of T at residue 108 of HCDR3 (IMGT numbering); scFv linker; VL of BC31M4 (as the variable region of the light chain of m6, PDB 7WN8) with H38 (LCDR1, IMGT numbering) changed; also called H38K
Regarding B9, in experiment [2], the binding result is listed as “binds”.

B10: BC31M5 (hIgG1 form) (antibody, V domains shown)
VH: B1 VH with K100T
VL: B1 VL with Y92H, Y93T, T94Q, A95N, S96T
notes: VH of BC31M5: as the variable region of the heavy chain of m6 (PDB 7WN8); constant region of the human IgG1 heavy chain (from the expression vector); VL of BC31M5: as the variable region of the light chain of m6 (PDB 7WN8); constant region of the light chain from the hIgG1 light-chain vector; IgG1
Turning to B10, in experiment [7], the “pH-dependence (ratio of KD at pH 7.4 to KD at pH 6.8)” value was around 1.9 fold. Moreover, the “fold higher binding affinity than BC31M4 at pH 6.8” value in experiment [8] is around 3 fold.

B11: BC31M4 (phage-scFv form) with VL H38 replaced by arginine (scFv, V domains shown)
VH: B1 VH with K100A
VL: B1 VL with H33R, Y92H, Y93T, T94Q, A95N, S96T
notes: VH of BC31M4: as the variable region of the heavy chain of m6 (PDB 7WN8) with A instead of T at residue 108 of HCDR3 (IMGT numbering); scFv linker; VL of BC31M4 (as the variable region of the light chain of m6, PDB 7WN8) with H38 (LCDR1, IMGT numbering) changed
Consider B11, for which the binding result in experiment [2] was “binds”.

The values above are taken from PMC9844003, “A pH-dependent anti-CD47 antibody that selectively targets solid tumors and improves therapeutic efficacy and safety” (Journal of Hematology & Oncology, 2023).
